# T1: human ubiquitin conjugating enzyme E2 protein Ubc-7 (human, UniProt P60604 1-165, limits assumed)
# T1 construct: also called Homo sapiens ubiquitin-conjugating enzyme E2G 2; UCE E2 Ubc7
# T1 sequence: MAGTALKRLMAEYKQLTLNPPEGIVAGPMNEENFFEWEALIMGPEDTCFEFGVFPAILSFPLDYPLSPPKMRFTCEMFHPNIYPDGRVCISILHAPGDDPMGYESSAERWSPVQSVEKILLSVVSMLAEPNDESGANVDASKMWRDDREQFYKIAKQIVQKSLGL
# B1: gp78 E3 RING motif with flanking sequence (amino acid residues 322 to 393 of the full-length gp78 E3 protein) (other)
# chain: MEARFAVATPEELAVNNDDCAICWDSMQAARKLPCGHLFHNSCLRSWLEQDTSCPTCRMSLNIADNNRVREE
# notes: also called gp78 RING; gp78RING motif
# Molecular target: T1, human ubiquitin conjugating enzyme E2 …
# Experiment: crystal structure of the gp78-Ubc7 fusion protein (SEQ ID No. 12) solved to 2.2 Å
binder,measurement,value
B1,binding result,binds
